Test results as given in the supplement of paper PMC9732359.
± gives the uncertainty stated by the source.

Test: protein stability index of a GFP-peptide fusion (yeast GPS) (PSI 1-4); higher = more stable; sorted into four equal gates, so the index is relative within each strain
Settings: san1∆
Procedure, shortened: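 Peptides tiling yeast proteins in 17-residue segments were fused downstream of GFP, with Cherry expressed from the same plasmid. As a pooled library in yeast, mid-log cultures grown in leucine-free medium were sorted into four equal gates by GFP/Cherry fluorescence ratio. Gate plasmids were PCR-amplified and Illumina-sequenced, and barcodes linked reads to strains. Each peptide received a protein stability index equal to the sum of each gate's read frequency times its gate number.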

| Sequence | protein stability index |
| --- | --- |
| EKENRFEIVDREKNSLE [SMC4] | 3.1 ± 0.1 |
| EKFSEKMLKIWTMAFRT [ECM29] | 1.37 ± 0.2 |
| EKIDGMDVDSVKTTLVS [RPC82] | 2.73 ± 0.11 |
| EKIWFAISKENLCGDIS [SIR3] | 2.27 ± 0.11 |
| EKKLMQDNKQLYQIWIV [YDL116W/NUP84] | 2.72 ± 0.15 |
| EKKPAAKKTSTSVDGKK [HTB2] | 2.72 ± 0.19 |
| EKLAVSALEQAIIYQRG [YGL100W/SEH1] | 2.11 ± 0.096 |
| EKLLETNVSKQNDFLFS [ECM29] | 1.53 ± 0.16 |
| EKLLQQDREITNWARTT [MED8] | 2.48 ± 0.089 |
| EKLYIFYKLNMPDEFNT [SRP72] | 1.91 ± 0.078 |
| EKNEKEREIKRRKFDPS [UBP6] | 3.09 ± 0.044 |
| EKPFNENRFQDTLLLLP [POP4] | 1.52 ± 0.14 |
| EKSGISKMSDESFAELM [RPC17] | 3.27 ± 0.11 |
| EKSLLPKIETNVYVGMT [ISW2] | 3.07 ± 0.098 |
| EKSRISERDSKDRYING [YMR129W/POM152] | 3.04 ± 0.066 |
| EKVILVQEQLSKNRIIV [RET1] | 1.5 ± 0.11 |
| EKVTIAPLVLLSALDHY [RPN8] | 1.42 ± 0.06 |
| ELDAQTLPGDDELDQEI [RPT5] | 3.44 ± 0.083 |
| ELEEQESESERKYDLFQ [SMC2] | 3.31 ± 0.068 |
| ELHKKLVEAAKLLKIPK [YDL116W/NUP84] | 2.33 ± 0.22 |
| ELIKNYITARIMAKRPF [FAS1] | 3.03 ± 0.046 |
| ELLDFLTSNLSNYSRTM [YJL039C/NUP192] | 2.82 ± 0.054 |
| ELLEHIETIGHLITKEE [RPN5] | 3.08 ± 0.068 |
| ELNDIDTKIDQVNGNIR [SMC3] | 3.07 ± 0.13 |
| ELNSSEDILEDMNSNLQ [SMC1] | 3.24 ± 0.045 |
| ELNYFVGCKNLERLTLV [GRR1] | 2.19 ± 0.094 |

| Sequence | protein stability index |
| --- | --- |
| ELPLEDFKAKYCDSMGR [RPB5] | 3.74 ± 0.13 |
| ELQIFKTANSSSDAFEK [YIL149C/MLP2] | 2.61 ± 0.061 |
| ELQKLVHDLNKYKSNTN [SMC2] | 3.41 ± 0.047 |
| ELRRPGVDNLRRMGILK [RPO31] | 2.85 ± 0.06 |
| ELRYQSHILNSHSLALN [DSN1] | 2.63 ± 0.057 |
| ELSNELSRLSTASKIIV [MED1] | 2.72 ± 0.097 |
| ELTKSLSIAFENGDYAA [RPN12] | 3.24 ± 0.073 |
| ELVFSKGVYLILSEILC [YML103C/NUP188] | 1.71 ± 0.07 |
| ELVVFLPALCKKMGVPY [RPL8A] | 2.78 ± 0.14 |
| EMGKLRERDITSLFHKF [RRI2] | 1.79 ± 0.17 |
| EMGKTDKSTKTAEAPTL [YOR098C/NUP1] | 2.89 ± 0.064 |
| EMTLPTSPLYMDPGAPL [SSN2] | 2.8 ± 0.15 |
| ENANADLENKFNRLKKQ [YIL149C/MLP2] | 3.09 ± 0.068 |
| ENDTNMNETLNLKVELK [SMC4] | 3.09 ± 0.13 |
| ENEEFITFLQTLYIGNT [ECM29] | 2.38 ± 0.11 |
| ENIQEGTSLTIQHIAAA [CDC53] | 2.42 ± 0.099 |
| ENLADLDYQIGNSESKV [LIN1] | 3.06 ± 0.12 |
| ENLFSKEEVCQGMEGTV [YMR129W/POM152] | 2.92 ± 0.054 |
| ENNYKKRLLGTAFKSSP [RPS23A] | 2.22 ± 0.062 |
| ENRKKDESDSENDIEIK [YLR335W/NUP2] | 1.65 ± 0.12 |
| ENSFYKKEASKTKWDRK [POP1] | 2.3 ± 0.068 |
| ENSGKEMDEKSYEKNED [LIN1] | 3.33 ± 0.14 |
| ENSTSNSKPEKSSDSND [YLR335W/NUP2] | 3.31 ± 0.071 |
| ENTVGLISGAGANPRVL [RPN10] | 1.86 ± 0.085 |
| ENYDAKIELEKKEKWAR [YIL149C/MLP2] | 2.67 ± 0.12 |

Same assay, conditions: ubr1∆

| Sequence | protein stability index |
| --- | --- |
| EEDVYLDPLARVSKDKK [FAS2] | 3.47 ± 0.061 |
